These are literature values, as cited in article PMC5855614.

pKd: −log10 of the molar value.

The term pKd denotes the Kd on a negative log10 scale, so that one unit is a factor of ten.

The target of this series is Galectin-3 (Homo sapiens) (UniProt P17931).
Chain of Galectin-3 (Homo sapiens) (P17931 2-250): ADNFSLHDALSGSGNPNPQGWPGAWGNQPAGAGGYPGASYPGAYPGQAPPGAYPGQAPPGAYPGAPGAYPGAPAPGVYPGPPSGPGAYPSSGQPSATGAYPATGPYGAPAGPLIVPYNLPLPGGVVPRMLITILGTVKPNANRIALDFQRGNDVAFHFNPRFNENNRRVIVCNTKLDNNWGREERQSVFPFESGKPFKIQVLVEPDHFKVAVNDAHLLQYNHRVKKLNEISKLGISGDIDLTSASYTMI

Consider G3-C12, for which the pKd was 7.14.
